# Source: paper PMC10115844, “The structural basis of tRNA recognition by arginyl-tRNA-protein transferase”
# How the values were obtained:
# [1] = biological target: T1, scATE1 (arginyl-tRNA-protein transferase 1) (Saccharomyces cerevisiae) (UniProt P16639); experiment: EMSA; settings: EMSA: 20 mM Tris-HCl pH 7.5, 150 mM NaCl, 5 mM DTT, on ice (tRNAArg: 0.001% NP-40, 30 °C), MST: 10 mM Tris, 5 mM Na phosphate pH 7.0, 100 mM NaCl, 3 mM DTT …
# T1 sequence: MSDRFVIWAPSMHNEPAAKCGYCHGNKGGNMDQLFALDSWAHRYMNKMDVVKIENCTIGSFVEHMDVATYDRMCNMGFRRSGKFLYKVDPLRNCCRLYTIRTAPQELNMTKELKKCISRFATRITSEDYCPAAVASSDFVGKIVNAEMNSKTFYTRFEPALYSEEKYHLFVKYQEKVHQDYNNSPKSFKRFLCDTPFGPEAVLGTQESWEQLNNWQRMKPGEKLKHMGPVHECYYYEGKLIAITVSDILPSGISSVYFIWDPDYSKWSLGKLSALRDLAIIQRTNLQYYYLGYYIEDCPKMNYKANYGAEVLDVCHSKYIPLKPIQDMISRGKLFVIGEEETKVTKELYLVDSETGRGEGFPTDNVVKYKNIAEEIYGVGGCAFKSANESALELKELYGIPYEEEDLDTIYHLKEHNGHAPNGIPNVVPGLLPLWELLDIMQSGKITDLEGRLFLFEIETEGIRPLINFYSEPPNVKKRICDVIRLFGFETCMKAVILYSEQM
# [2] = biological target: T2, scATE1 (arginyl-tRNA-protein transferase 1) (Saccharomyces cerevisiae, UniProt P16639 1-503); experiment: MST competition; displacement of FAM-DNA, 30 µM ATE1; EMSA: 20 mM Tris-HCl pH 7.5, 150 mM NaCl, 5 mM DTT, on ice (tRNAArg: 0.001% NP-40, 30 °C); MST: 10 mM Tris, 5 mM Na phosphate pH 7.0, 100 mM NaCl, 3 mM DTT, 0.08% Tween-20; fluorescence: 20 mM Tris pH 7.5, 125 mM NaCl, 3 mM DTT, 27 °C; settings: protein: recombinant; tags: N-terminal GST (pGEX 6p-1), cleaved with PreScission; label: none (SYBR green stain); hairpin
# T2 sequence: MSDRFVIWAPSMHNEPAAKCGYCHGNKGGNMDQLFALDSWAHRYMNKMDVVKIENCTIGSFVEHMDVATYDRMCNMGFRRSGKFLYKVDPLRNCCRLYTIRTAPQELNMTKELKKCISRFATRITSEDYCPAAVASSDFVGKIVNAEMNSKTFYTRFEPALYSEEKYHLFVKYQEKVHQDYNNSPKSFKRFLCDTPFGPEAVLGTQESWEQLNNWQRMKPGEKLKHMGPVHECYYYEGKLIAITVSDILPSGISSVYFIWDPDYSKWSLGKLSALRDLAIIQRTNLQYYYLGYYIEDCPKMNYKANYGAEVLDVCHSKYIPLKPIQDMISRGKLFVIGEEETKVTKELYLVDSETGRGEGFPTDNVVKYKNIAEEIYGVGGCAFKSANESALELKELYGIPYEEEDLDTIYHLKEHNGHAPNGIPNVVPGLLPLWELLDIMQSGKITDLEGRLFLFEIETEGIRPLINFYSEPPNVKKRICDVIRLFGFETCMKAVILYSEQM
# [3] = biological target: T2, scATE1 (arginyl-tRNA-protein …); experiment: cryoEM structure; co-purified complex, 3.7 Å map; EMD-29638; EMSA: 20 mM Tris-HCl pH 7.5, 150 mM NaCl, 5 mM DTT, on ice (tRNAArg: 0.001% NP-40, 30 °C); MST: 10 mM Tris, 5 mM Na phosphate pH 7.0, 100 mM NaCl, 3 mM DTT, 0.08% Tween-20; fluorescence: 20 mM Tris pH 7.5, 125 mM NaCl, 3 mM DTT, 27 °C; settings: protein: recombinant; tags: N-terminal GST (pGEX 6p-1), cleaved with PreScission; label: none; tRNA cloverleaf
molecule,measurement,setting,value
E. coli tRNALys acceptor arm,Kd,"[1]; smeary bands, possibly non-specific",4000 nM
"full-length tRNALys, in vitro transcribed",binding signal (fold weaker than tRNAArg),"[1]; 0.25 µM tRNA, affinity similar to acceptor arm alone",20
human tRNAArg A + T arms,binding signal (fold higher affinity from A + T arms),[1],4
human tRNAArg acceptor (A) arm,Kd,[1]; 2-fold stronger than E. coli acceptor arm,1500 nM
"human tRNAArg, in vitro transcribed",Kd,"[1]; 30 °C, 0.001% NP-40, 1 nM RNA, apparent Kd",155 nM
GCAUCCGCUACGAACGGAUGCACCA (structured_RNA) [E. coli tRNAArg acceptor arm miniRNA hairpin],Ki,[2],~3600 nM
"tRNAArg (argU) in the cryoEM complex (structured_RNA, native modifications possible, not stated) RNA: GCGCCCUUAGCUCAGUUGGAUAGAGCAACGACCUUCUAAGUCGUGGGCCGCAGGUUCGAAUCCUGCAGGGCGCGCCA",binding result,[3],binds
